# Data from PMC11162469, “Discovery of RXFP2 genetic association in resistant hypertensive men and RXFP2 antagonists for the treatment of resistant hypertension” (Scientific Reports, 2024).
# B1: RXFP2 mAb 3F3 (antibody, V domains shown)
# VH: QVQLQQPGSVLVRPGASVKLSCKASGYIFTSYWMHWVKQRPGQGLEWIGEIYPNSGRTSYNEKFKGKATVTVDTSSSTAYVDLSSLTSEDSAVYYCASGGHWFAYWGQGTLVTVSA
# VL: DIQMTQSSSSFSVSLGDRVTITCKASEDIYNRLAWYQQKPGNAPRLLISGATSLEAGVPSRFSGSGSGKDYTLSITSLQTEDVSTYYCQQYWITPYTFGGGTKLEIK
# B2: RXFP2 mAb 1G1 (antibody, V domains shown)
# VH: EVQLQQSGPELVKPGASVKMSCKASGYTFTDYNMHWVKQKPGQGLEWIGYINPYNDGTEYNEKFKGKATLTSDKSSSTAYMDLSSLTSEDSAVYYCARGLWFAMNYWGQGTSVTVSS
# VL: DIQMTQSSSSFSVSLGDRVTITCKASEDIYNRLAWYQQKPGNTPRLLISGATILETGVPSRFSGSGSGKDYTLSIISLQTEDVATYYCQQYWIIPPTFGGGTKLEIK
# B3: RXFP2 mAb 4A5 (antibody, V domains shown)
# VH: DVQLVESGGGLVQPGGSRKLSCAASGFTFSTFGMHWVRQAPEKGLEWVAYISSGSSTIYYADTVKGRFTISRDNPKNTLFLQMTSLRSDDTAMYYCSRSYYGSAHYFDYWGQGTTLTVSS
# VL: DIQMTQSPASLSVSVGETVTITCRASENIYSNLAWYQQKQGKSPQLLVYVATNLADGVPSRFSGSGSGTQYSLRINNLQSEDFGNYYCQHFWGTPPTFGGGTKLEIK
# B4: RXFP2 mAb 1F2 (antibody, V domains shown)
# VH: QVQLKQSGPGLVQPSQSLSITCTVSGFSLTAYGVNWVRQSPGKGLEWLGVIWSGGNTDYNAPFISRLSITKDNSKSQVFFKMNSLEADDTAIYYCARAKGYYAMDYWGQGTSVTVSS
# VL: DIQMTQSPASLSVSVGESVTITCRATENIYSNLVWYQQKQGQSPQLLVYAVTSLADGVPSRFSGSGSGTQYSLKINSLQSEDFGTYYCQHFWGTPYTFGGGTKLEIK
# B5: RXFP2 mAb 3G4 (antibody, V domains shown)
# VH: QVQLKESGPGLVAPSQSLSITCTVSGFSLTSYGVSWVRQPPGKGLEWLGVIWGDGSTNYHSALISRLSISKDNSKSQVFLKLNSLQTDDTATYYCAKSLGYYAMDYWGQGTSVTVSS
# VL: DIQMTQSPASLSVSVGETVTITCRASENIYSNLVWYQQKQGKSPQLLVYAATNLAEGVPSRFSGSGSGTQYSLKINSLQSEDFGSYYCQHFWGPPWTFGGGTKLEIK
# B6: RXFP2 mAb 3F1 (antibody, V domains shown)
# VH: QVQLKESGPGLVAPSQSLSITCTVSGFSLTDYGVSWIRQPPGKGLEWLGVIWGGGSTDYNPALKSRLSISKDNSKSQVFLKMNSLQADDTAMYYCVKHEGYYAMDYWGQGTSVTVSS
# VL: DIQMTQSPASLSVSVGETVTITCRASENIYSNLAWYQQKQGKSPHLLVYAVTNLADGVPSRFSGSGSGTQYSLKINSLQSEDFGSYYCQHFWGTPYTFGGGTKLEIK
# B7: RXFP2 mAb 3H1 (antibody, V domains shown)
# VH: QVQLKETGPGLVAPSQSLSITCTVSGFSLTNYGVNWVRQPPGKGLEWLVVIWSDGSTNYNSALKSRLSISKDNSKSQVFLKMNSLQTDDTAMYYCARQQGYYAMDYWGQGTSVIVSS
# VL: DIQMTQSPASLSVSVGETVTITCRASENIYSNLAWYQQKQGKSPQLLVYAVTNLADGVPSRFSGSGSGTQYSLKINSLQSEDFGSYYCQHFWGPPYTFGGGTKLEIK
# B8: RXFP2 mAb 4H2 (antibody, V domains shown)
# VH: QVQLRQSGPSLVQPSQSLSITCTVSGFSLTNYGVHWVRQSPGKGLEWLGVIWRGGNTDHNAAFMSRLSITKDNSESQVFFKMNSLQVDDTAIYYCAKAEGYYALDYWGQGTSVTVYS
# VL: DIQMTQSPASLSVSVGETVTITCRASENIYSNLAWYQQKQGKSPQLLVYAVTNLADGVPSRFSGSGSGTQYSLKINSLQSEDFGSYYCQHFWGTPWTFGGGTKLEIK
# B9: RXFP2 mAb 4H5 (antibody, V domains shown)
# VH: QVQLKQSGPGLVQPSQSLSITCTVSGFSLTNYGVHWVRQSPGKGLEWLGVIWRDGNTDYNAAFMSRLSITKDNSKSQVFFEMNSLQVDDTAIYYCCRGDGYYAMGYWGQGTSVTVSS
# VL: DIQMTQSPASLSVSVGETVTITCRASENIYSNLAWYQQRQGRSPQLLVYAATNLADGVPSRFSGSGSGTQYSLKINSLQSEDFGNYYCQHFWGSPRTFGGGTKLEIK
# B10: RXFP2 mAb 4B8 (antibody, V domains shown)
# VH: QVQLKQSGPGLVQPSQSLSITCTVSGFSLSRYGVHWVRQSPGKGLEWLGVIWSGGSTEYNAVFKSRLSISKDNSKSQVFFKMNSLQANDTAIYYCVRADGYYAMEYWGQGTSVTVSS
# VL: DIQMTQSPASLSVSVGETVTITCRASENIYSNLAWYQQKQGKSPQLLVYAVTNLADGVPSRFSGSGSGTQYSLKINSLQSEDFGNYYCQHFWGTPYTFGGGTKLEIK
# B11: RXFP2 mAb 2D4 (antibody, V domains shown)
# VH: QVQLKESGPGLVAPSQSLSITCTVSGFSLTTYGISWVRQPPGKGLEWLGVIWTGGGTNYNSALKSRLSISKDNSKSQVFLKMNSLQTDDTARYYCARTEGYYVMDYWGQGTSVTVSS
# VL: DIQMTQSPASLSVSVGETVTITCRASENIYSNLVWYQQKQGKSPQLLVYAATNLADGVPSRFSGSGSGTQYSLKINNLQSEDFGTYYCQHFWGPPWTFGGGTKLEIK
# B12: RXFP2 mAb 4F6 (antibody, V domains shown)
# VH: EVQLQQSGPELVKPGASVKMSCKASGYTFTNYVLHWVKQKPGQGLEWIGYINPYNDGSKYNEKFKGRATLTSDKSSSTAYMELSSLTSEDSAVYYCARGGWLLDYFDYWGQGTTLTVSS
# VL: DVLMTQSPLSLPVSLGEQASISCRSSQSIVHSDGDTYLEWYLQKPGQSPNLLIYKVSNRFSGVPDRFSGSGSGTDFTLKISRVEAEDLGVYYCFQGSHVPPTFGGGTKLEIK
# B13: RXFP2 mAb 4H1 (antibody, V domains shown)
# VH: QIQLVQSGPELKKPGETVKISCKTSGYTFTKYPMHWVKQAPGEGLKWMGWINTYSGLPTFADDFKGRFAFSLETSANTADLQINNLKNEDMATYFCAREGKKLSGYFDYWGQGTTLTVSS
# VL: DIKMTQSPSSMYASLGERVTITCKASQDINSYLTWFQQKPGQSPKTLIYRANRFVDGVPSRFSGSGSGQDYSLTITSLEYEDMGIYYCLQYDEFPYTFGGGTQLEIK
# Tests used:
# [1] = target: rat relaxin family peptide receptor 2 (RXFP2) (rat) (UniProt Q5ECL0)
# Chain of rat relaxin family peptide receptor 2 (RXFP2) (rat) (Q5ECL0 entry or part of it): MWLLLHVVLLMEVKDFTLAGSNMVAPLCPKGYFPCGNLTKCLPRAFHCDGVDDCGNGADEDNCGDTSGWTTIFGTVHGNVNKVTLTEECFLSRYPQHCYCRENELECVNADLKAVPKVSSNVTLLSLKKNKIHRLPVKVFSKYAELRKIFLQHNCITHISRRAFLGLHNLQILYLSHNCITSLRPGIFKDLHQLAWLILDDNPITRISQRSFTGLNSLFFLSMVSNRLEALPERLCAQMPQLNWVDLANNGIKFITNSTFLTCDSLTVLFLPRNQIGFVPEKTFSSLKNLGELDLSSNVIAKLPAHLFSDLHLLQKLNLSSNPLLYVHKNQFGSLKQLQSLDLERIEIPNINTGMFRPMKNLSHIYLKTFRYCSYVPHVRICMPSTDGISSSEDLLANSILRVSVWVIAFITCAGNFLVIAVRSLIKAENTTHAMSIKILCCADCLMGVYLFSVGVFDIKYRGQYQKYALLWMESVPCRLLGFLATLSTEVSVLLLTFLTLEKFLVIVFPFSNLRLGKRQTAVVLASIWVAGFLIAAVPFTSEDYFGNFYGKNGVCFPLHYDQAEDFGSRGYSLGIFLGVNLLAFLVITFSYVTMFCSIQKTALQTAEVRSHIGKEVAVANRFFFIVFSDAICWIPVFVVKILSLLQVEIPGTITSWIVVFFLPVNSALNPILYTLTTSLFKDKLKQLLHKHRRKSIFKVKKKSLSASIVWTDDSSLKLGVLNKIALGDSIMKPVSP
# [2] = target: rat relaxin family peptide receptor 2 (RXFP2) (rat) (UniProt Q5ECL0); remark: listed apart in the source
# [3] = target: human relaxin family peptide receptor 2 (RXFP2) (human) (UniProt Q8WXD0)
# Chain of human relaxin family peptide receptor 2 (RXFP2) (human) (Q8WXD0 whole entry): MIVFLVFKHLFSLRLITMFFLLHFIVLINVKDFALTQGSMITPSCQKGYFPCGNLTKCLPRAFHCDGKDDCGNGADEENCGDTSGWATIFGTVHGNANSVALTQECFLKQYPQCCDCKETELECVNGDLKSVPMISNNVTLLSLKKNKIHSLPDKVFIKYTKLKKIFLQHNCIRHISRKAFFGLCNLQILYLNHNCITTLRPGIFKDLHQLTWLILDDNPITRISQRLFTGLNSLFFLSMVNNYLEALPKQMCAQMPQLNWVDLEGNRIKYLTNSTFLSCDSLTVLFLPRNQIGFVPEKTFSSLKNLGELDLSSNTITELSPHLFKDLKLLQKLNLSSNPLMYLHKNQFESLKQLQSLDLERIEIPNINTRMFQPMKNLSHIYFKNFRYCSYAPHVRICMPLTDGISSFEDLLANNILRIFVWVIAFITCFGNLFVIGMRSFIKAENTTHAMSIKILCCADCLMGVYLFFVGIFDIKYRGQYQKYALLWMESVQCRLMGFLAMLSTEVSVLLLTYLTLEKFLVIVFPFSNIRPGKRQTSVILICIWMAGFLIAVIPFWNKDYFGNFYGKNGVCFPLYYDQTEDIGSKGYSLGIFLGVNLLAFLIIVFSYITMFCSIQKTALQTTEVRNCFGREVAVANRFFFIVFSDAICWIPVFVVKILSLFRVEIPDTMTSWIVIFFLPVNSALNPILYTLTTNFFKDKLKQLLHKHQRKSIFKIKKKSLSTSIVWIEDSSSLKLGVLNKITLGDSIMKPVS
Binder,"% Max Response, INSL3 (EC80)-stimulated cAMP in HEK293 stably expressing rat RXFP2 [1]","IC50, INSL3 (EC80)-stimulated cAMP in HEK293 stably expressing rat RXFP2 [1]","IC50, INSL3-stimulated CYP11B1 mRNA in H295R stably expressing rat RXFP2 [1]","IC50, INSL3-stimulated CYP11B2 mRNA in H295R stably expressing rat RXFP2 [1]","IC50, INSL3-induced cortisol release (ELISA) from H295R stably expressing rat RXFP2 [2]","IC50, INSL3 (EC80)-stimulated cAMP in HEK293 stably expressing human RXFP2 [3]","IC50, INSL3-induced aldosterone release (ELISA) from H295R stably expressing rat RXFP2 [2]","% Max Response, INSL3 (EC80)-stimulated cAMP in HEK293 stably expressing human RXFP2 [3]"
B1,78.5%,37 nM,3.85 nM,0.51 nM,–,–,–,–
B2,87.2%,28 nM,0.27 nM,0.17 nM,–,–,–,–
B3,91%,23.2 nM,2.85 nM,0.31 nM,–,–,–,–
B4,76.1%,19.1 nM,0.32 nM,0.1 nM,0.21 nM,405 nM,–,–
B5,83.3%,16.1 nM,0.33 nM,0.2 nM,–,–,–,–
B6,69.7%,19.9 nM,0.27 nM,0.23 nM,–,589 nM,–,–
B7,71.6%,15.8 nM,0.33 nM,0.16 nM,–,–,–,–
B8,85.7%,18.9 nM,0.26 nM,0.13 nM,–,–,–,–
B9,89.2%,14.2 nM,0.21 nM,0.15 nM,–,–,–,–
B10,86.6%,21.4 nM,0.23 nM,0.17 nM,–,116 nM,–,–
B11,86.8%,21 nM,0.14 nM,0.11 nM,0.17 nM,> 1000 nM,0.05 nM,–
B12,80.4%,48.5 nM,–,–,–,354 nM,–,82.7%
B13,69.7%,150 nM,–,–,–,218 nM,–,–
